We go through 7 molecules from patent publication US20080050387A1, “Non-Androgen Dependent Roles for Androgen Receptor and Non-Androgen Related Inhibitors of Androgen Receptor” (priority 2003, published 2008).

Residue numbers refer to the chain shown, from its start.

The test system of assay [1] is AR. The assay can be described thus: Mammalian two-hybrid assay hRad9 / AR in PC-3 cells. The assay is classed as cell-based, human. As to conditions: 10 nM DHT; for interaction between AR and full-length hRad9 / interaction between AR and the fragment of hRad9 (aa 327-391): FXXLF motif mutants. As for the experimental part:
(§1) PC-3, CWR22R, and LNCaP cell lines were maintained in […] supplemented with 10% fetal calf serum (FCS). Transient transfection for luciferase assays was carried out in 24-well plates (5×10^4 cells per well) using SuperFect as described previously (Lin, H. K., et al., Embo J 21:4037-48 (2002)). DNA mixtures in transfection assay were indicated in each figure. The total amount of transfected DNA was kept constant (1 μg) by adding the corresponding amounts of empty expression plasmids. After transfection, cells were cultured in […] supplemented with 5% charcoal-stripped FCS in the presence or absence of 10 nM dihydrotestosterone (DHT) for 18 h. Luciferase assays were performed as previously described (Yang, L., et al., J Biol Chem 278:16820-7 (2003)). In Western blotting assays, CWR22R or LNCaP cells were transfected by electroporation using 5×10^6 cells/0.4 ml of RPMI medium containing 2% FCS plus 9 μg of the indicated plasmids. 1 μg of EGFP expression vector was used for transfection efficiency. Electroporation was performed at 250 V and 950 μF using Gene Pulser II (Bio-Rad)
Target sequence in this assay (P10275 with tags, fused parts or gaps DEL79-80/DUP473-473): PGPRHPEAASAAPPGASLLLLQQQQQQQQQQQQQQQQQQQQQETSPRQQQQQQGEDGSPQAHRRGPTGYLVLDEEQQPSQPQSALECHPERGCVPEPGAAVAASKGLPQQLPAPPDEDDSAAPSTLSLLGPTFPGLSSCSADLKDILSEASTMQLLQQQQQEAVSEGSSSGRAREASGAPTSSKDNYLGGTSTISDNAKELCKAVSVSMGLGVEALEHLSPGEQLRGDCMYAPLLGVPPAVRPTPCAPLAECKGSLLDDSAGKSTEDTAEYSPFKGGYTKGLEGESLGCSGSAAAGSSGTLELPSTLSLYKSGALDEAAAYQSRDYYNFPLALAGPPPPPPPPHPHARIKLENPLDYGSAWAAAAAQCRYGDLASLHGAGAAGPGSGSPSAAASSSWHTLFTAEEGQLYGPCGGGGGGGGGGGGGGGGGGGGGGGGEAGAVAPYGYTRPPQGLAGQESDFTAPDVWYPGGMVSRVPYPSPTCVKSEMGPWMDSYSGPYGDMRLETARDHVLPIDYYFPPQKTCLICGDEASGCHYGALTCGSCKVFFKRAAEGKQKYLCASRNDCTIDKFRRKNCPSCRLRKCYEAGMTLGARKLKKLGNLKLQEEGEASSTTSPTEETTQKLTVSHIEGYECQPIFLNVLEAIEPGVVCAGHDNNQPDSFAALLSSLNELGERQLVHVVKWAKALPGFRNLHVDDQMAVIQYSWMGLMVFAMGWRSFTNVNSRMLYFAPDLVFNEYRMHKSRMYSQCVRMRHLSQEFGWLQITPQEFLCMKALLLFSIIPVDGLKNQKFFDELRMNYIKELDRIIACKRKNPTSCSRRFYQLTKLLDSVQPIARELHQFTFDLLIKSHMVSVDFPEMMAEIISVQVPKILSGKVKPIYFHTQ

The subject of assay [2] is AR. Kind of assay: AR transactivation MMTV-LUC assay in PC-3 cells with hRad9. The assay is classed as cell-based, human. The procedure: as §1
Target sequence in this assay (P10275 with tags, fused parts or gaps DEL79-80/DUP473-473): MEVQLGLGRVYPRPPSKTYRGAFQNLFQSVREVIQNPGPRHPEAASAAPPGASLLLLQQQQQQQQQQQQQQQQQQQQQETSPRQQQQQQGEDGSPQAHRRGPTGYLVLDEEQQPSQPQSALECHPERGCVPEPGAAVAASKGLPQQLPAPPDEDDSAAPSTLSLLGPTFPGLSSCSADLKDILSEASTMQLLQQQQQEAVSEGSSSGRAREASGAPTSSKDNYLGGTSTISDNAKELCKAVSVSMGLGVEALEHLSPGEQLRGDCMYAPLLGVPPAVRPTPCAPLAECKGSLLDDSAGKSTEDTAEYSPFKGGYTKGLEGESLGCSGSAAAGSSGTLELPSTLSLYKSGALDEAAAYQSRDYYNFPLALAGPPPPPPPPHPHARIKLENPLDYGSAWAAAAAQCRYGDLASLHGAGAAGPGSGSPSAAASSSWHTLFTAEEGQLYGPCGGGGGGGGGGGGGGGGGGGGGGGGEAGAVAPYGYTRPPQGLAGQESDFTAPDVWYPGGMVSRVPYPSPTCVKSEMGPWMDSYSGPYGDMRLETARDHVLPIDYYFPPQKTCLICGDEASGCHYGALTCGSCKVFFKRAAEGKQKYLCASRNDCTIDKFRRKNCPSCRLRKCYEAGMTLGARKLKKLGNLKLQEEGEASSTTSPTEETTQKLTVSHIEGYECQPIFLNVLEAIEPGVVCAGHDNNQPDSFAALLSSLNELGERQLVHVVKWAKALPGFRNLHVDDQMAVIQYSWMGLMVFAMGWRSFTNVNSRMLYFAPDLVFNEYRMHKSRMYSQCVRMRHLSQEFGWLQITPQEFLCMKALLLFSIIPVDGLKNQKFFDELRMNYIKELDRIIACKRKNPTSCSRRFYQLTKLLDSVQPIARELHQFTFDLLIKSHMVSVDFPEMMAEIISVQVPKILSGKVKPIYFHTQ
Another assay deals with AR N/C interaction. The assay can be described thus: Reconstituted AR transcription assay (AR N/C interaction) in PC-3 cells. It counts as cell-based, human. As to conditions: 10 nM DHT, MMTV-LUC. The procedure:
as §1

The next assay relates to AR (DBD-LBD, LBD, DBD). Kind of assay: Yeast two-hybrid / liquid β-gal assay hRad9 fragment / AR domains. It counts as cell-based, human. The text has this:
The DBD and LBD of AR cDNA was amplified and was cloned into the NdeI and BamHI site of pGBKT7 (Clontech). Yeast strain AH109 was transformed with the vector encoding GAL4 DBD-AR-DBD-LBD fusion and was mated with yeast strain Y187 pretransformed with the human ovary […] cDNA library (Clontech). The yeast clones were selected following the manufacturer's instruction. The positive clones were confirmed by clone lift assay and purified plasmids were retransformed into yeast strain AH109 with bait plasmids. The interaction specificity was further confirmed by liquid […] assay.

For assay [3], the system named is AR. Kind of assay: AR transactivation reporter gene assay in H1299 cells with ARA67. The following applies: H1299 cells, 600 ng construct, MMTV-luc. It counts as cell-based, human. The procedure:
H1299 and COS-1 cells were maintained in Dulbecco's modified Eagle's medium (DMEM) (Life Technologies, Inc.) supplemented with 10% heat inactivated fetal bovine serum (FBS). LNCap cells were maintained in RPMI 1640 supplemented with […]. All media contain 100 units penicillin, 100 μg/ml streptomycin and 2 mM L-glutamine. Cells were seeded to a density of 50-60% confluency for transfection. In transfections where H1299 and COS-1 cells were used, the calcium phosphate precipitation method was used as described (Pan H J, et al. 1999. Endocrine 11:321-327) unless otherwise noted. […] In other reporter gene assays, where ligand treatment was required, cell culture media were changed to DMEM containing 10% charcoal-dextran-stripped FBS (CD-FBS) 2 h before transfection. After 16-18 h transfection, cells were treated with medium containing either vehicle or ligands for another 20-24 h and then cells were harvested. With LNCap cells transfection, the cells were treated with fresh RPMI 1640 containing 10% CD-FBS before transfection with SuperFect performed according to the manufacturer's protocol (Qiagen). After transfection, cells were allowed to recover in fresh RPMI 1640 containing 10% CD-FBS for 8-12 h, and then treated with either vehicle or ligands for another 20-24 h before harvesting. Each experiment was repeated at least three times.

The subject of another assay is AR (ARN, ARDBD, ARLBD). Kind of assay: GST pull-down assay ARA67 / AR. It counts as binding, human. The procedure:
GST-ARN, GST-ARA67 fusion proteins, and GST control protein were expressed in BL21 (DE3)pLysS bacteria strain (Stratagene) and purified with glutathione-Sepharose beads as instructed by the manufacturer (Amersham Pharmacia). In vitro [^35S]methionine-labeled AR, ARN, AR DBD, AR LBD and ARA67 proteins were generated using TNT-coupled Reticulocyte Lysate Systems (Promega). For in vitro interaction, mixtures of glutathione beads bound GST fusion proteins and 5 μl [^35S]methionine-labeled input proteins in 100 μl interaction buffer (20 mM Tris/pH8.0, 60 mM NaCl, 6 mM MgCl2, 1 mM EDTA, 0.05% Nonidet P-40, 1 mM DTT, 8% glycerol, 1 mM PMSF) were incubated in the presence or absence of 10 μM dihydrotestosterone (DHT) on a rotating disk at 4° C. for 2 h. After washing with NETN buffer (20 mM Tris/pH8.0, 100 mM NaCl, 6 mM MgCl2, 1 mM EDTA, 0.5% Nonidet P-40, 1 mM DTT, 8% glycerol, 1 mM PMSF) four times, the bound proteins were separated on 8-13% SDS-PAGE and visualized by autoradiography.

Assay [4] concerns MAPK (GAL4-Elk1 transactivation). Kind of assay: GAL4-Elk1 reporter gene assay (MAPK activation) in MCF7 cells. It counts as cell-based, human. As to conditions: AR-FL-activated, pG5-luc reporter. As for the experimental part: Cells were plated in 96-well plates and plasmids at 0.5 μg per well were transfected into cells using SuperFect (Qiagen). The medium was changed 2 h after transfection and cells were cultured in the medium containing 10% CDS-FBS or 0.2% HI-FBS for 16 h, followed by treatment with 50 ng/ml EGF, 100 ng/ml IGF-1,100 ng/ml HRG-α 0.1 nM E2, or 1 nM DHT for another 16 h. Cells were then harvested and the luciferase activity was analyzed using Dual-Luciferase Reporter Assay System (Promega). 5 ng pRL-TK per well was used as internal control.
A general note: A reporter such as luciferase makes a cellular process visible.

AR N/C interaction, sequence (P10275 557-920): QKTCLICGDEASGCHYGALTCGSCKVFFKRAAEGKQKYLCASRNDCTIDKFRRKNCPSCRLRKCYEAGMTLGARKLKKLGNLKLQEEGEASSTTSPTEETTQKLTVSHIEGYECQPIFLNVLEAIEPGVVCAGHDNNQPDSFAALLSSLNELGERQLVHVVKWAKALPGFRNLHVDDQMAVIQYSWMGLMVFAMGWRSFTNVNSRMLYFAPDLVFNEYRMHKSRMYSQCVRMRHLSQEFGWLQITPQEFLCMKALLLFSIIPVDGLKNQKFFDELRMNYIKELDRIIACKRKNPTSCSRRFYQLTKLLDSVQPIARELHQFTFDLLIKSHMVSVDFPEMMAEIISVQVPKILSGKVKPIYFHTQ
AR (ARN, ARDBD, ARLBD), sequence (P10275 with tags, fused parts or gaps DEL79-80/DUP473-473): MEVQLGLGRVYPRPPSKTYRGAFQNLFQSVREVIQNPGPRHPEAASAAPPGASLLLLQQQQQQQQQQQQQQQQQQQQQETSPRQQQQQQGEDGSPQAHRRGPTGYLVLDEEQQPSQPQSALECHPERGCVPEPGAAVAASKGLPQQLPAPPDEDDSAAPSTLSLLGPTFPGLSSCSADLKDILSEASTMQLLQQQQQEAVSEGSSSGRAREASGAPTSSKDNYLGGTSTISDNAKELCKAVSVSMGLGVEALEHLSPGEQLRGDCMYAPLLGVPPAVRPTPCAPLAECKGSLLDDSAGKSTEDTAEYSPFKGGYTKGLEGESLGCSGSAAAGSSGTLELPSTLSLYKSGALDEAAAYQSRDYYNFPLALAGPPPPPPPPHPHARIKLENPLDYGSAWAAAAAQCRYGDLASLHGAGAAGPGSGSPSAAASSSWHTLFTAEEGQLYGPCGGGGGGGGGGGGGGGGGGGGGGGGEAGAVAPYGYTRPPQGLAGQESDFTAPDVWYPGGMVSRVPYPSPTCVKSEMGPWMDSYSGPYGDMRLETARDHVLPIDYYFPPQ

B1: C-terminus of hRad9: hRad9 aa 269-391 (protein, UniProt Q99638 269-391, looked up, fragment)
chain: DSHSQDLGSPERHQPVPQLQAHSTPHPDDFANDDIDSYMIAMETTIGNEGSRVLPSISLSPGPQPPKSPGPHSEEEDEAEPSTVPGTPPPKKFRSLFFGSILAPVRSPQGPSPVLAEDSEGEG
On to B1, for which the “interaction with AR” value in the assay with AR [1] is listed as “strong interaction”. The “AR-mediated transactivation (full length AR)” value with AR [2] (pCMV-AR, hRad9 termini) is recorded as “suppressed”. In addition, the “interaction between AR N- and C-terminus” value with AR N/C interaction is reported as “potently inhibit”.

B2: f-hRad9: fragment aa 327-391 of hRad9 containing the FXXLF motif (protein, UniProt Q99638 327-391, looked up, fragment)
chain: LSPGPQPPKSPGPHSEEEDEAEPSTVPGTPPPKKFRSLFFGSILAPVRSPQGPSPVLAEDSEGEG
Turning to B2, in the assay with AR [1], the “interaction with AR” value is “androgen-dependent interactions were detected”. For the same molecule, in the assay with AR (DBD-LBD, LBD, DBD) (AH109 yeast cells, presence of androgen), the “interaction with AR LBD” value is reported as “interacted”. Further, the “liquid β-gal assay induction with the AR-DBD-LBD” value in the assay on AR (DBD-LBD, LBD, DBD) (yeast, presence of DHT) is “strong induction”.

B3: N-hRad9: PCNA-like domain of hRad9, aa 1-270 (protein)
chain: MKCLVTGGNVKVLGKAVHSLSRIGDELYLEPLEDGLSLRTVNSSRSAYACFLFAPLFFQQYQAATPGQDLLRCKILMKSFLSVFRSLAMLEKTVEKCCISLNGRSSRLVVQLHCKFGVRKTHNLSFQDCESLQAVFDPASCPHMLRAPARVLGEAVLPFSPALAEVTLGIGRGRRVILRSYHEEEADSTAKAMVTEMCLGEEDFQQLQAQEGVAITFCLKEFRGLLSFAESANLNLSIHFDAPGRPAIFTIKDSLLDGHFVLATLSDTDS
Consider B3, for which, in the assay on AR [1], the “interaction with AR” value is “did not”. For the same molecule, the “interaction between AR N- and C-terminus” value in the assay on AR N/C interaction is “no effect”.

B4: ARA67281-550: truncated ARA67 fragment, residues 281-550 (protein)
chain: GSKHPKYSDTLLDYGFYLLNVDNICQSVAIYQAALDIRQSVFGGKNIHVATAHEDLAYSSYVHQYSSGKFDNALFHAERAIGIITHILPEDHLLLASSKRVKALILEEIAIDCHNKETEQRLLQEAHDLHLSSLQLAKKAFGEFNVQTAKHYGNLGRLYQSMRKFKEAEEMHIKAIQIKEQLLGQEDYEVALSVGHLASLYNYDMNQYENAEKLYLRSIAIGKKLFGEGYSGLEYDYRGLIKLYNSIGNYEKVFEYHNVLSNWNRLRDRQ
For B4, in the assay on AR [3], the “suppression of AR transactivation by ARA67 fragments” value is reported as “could also suppress AR transactivation”. The “interaction with ARN” value in the assay with AR (ARN, ARDBD, ARLBD) is on record as “slightly stronger interaction”.

B5: AXXLF: hRad9 mutant, F361 converted to Ala (protein, UniProt Q99638 1-391, looked up, variant F361A)
Cell cycle checkpoint control …: MKCLVTGGNVKVLGKAVHSLSRIGDELYLEPLEDGLSLRTVNSSRSAYACFLFAPLFFQQYQAATPGQDLLRCKILMKSFLSVFRSLAMLEKTVEKCCISLNGRSSRLVVQLHCKFGVRKTHNLSFQDCESLQAVFDPASCPHMLRAPARVLGEAVLPFSPALAEVTLGIGRGRRVILRSYHEEEADSTAKAMVTEMCLGEEDFQQLQAQEGVAITFCLKEFRGLLSFAESANLNLSIHFDAPGRPAIFTIKDSLLDGHFVLATLSDTDSHSQDLGSPERHQPVPQLQAHSTPHPDDFANDDIDSYMIAMETTIGNEGSRVLPSISLSPGPQPPKSPGPHSEEEDEAEPSTVPGTPPPKKARSLFFGSILAPVRSPQGPSPVLAEDSEGEG
On to B5, for which, in the assay on AR [1], the “interaction between AR and full-length hRad9” value is given as “reduced”; the “interaction between AR and the fragment of hRad9 (aa 327-391)” value is reported as “decreased dramatically”.

B6: FXXAA: hRad9 mutant, L364 and F365 converted to Ala (protein, UniProt Q99638 1-391, looked up, variant L364A F365A)
Cell cycle checkpoint control …: B5 Cell cycle checkpoint control … with A361F, L364A, F365A
With B6, in the assay on AR [1], the “interaction between AR and full-length hRad9” value is given as “reduced”; the “interaction between AR and the fragment of hRad9 (aa 327-391)” value is “decreased dramatically”. In addition, the “transcriptional activity of AR” value in the assay on AR [2] (MMTV-LUC, 10 nM DHT) is “only marginal effect”.

B7: CL-100: MAPK phosphatase-1 (protein, UniProt P28562 1-367, looked up)
Dual specificity protein …: MVMEVGTLDAGGLRALLGERAAQCLLLDCRSFFAFNAGHIAGSVNVRFSTIVRRRAKGAMGLEHIVPNAELRGRLLAGAYHAVVLLDERSAALDGAKRDGTLALAAGALCREARAAQVFFLKGGYEAFSASCPELCSKQSTPMGLSLPLSTSVPDSAESGCSSCSTPLYDQGGPVEILPFLYLGSAYHASRKDMLDALGITALINVSANCPNHFEGHYQYKSIPVEDNHKADISSWFNEAIDFIDSIKNAGGRVFVHCQAGISRSATICLAYLMRTNRVKLDEAFEFVKQRRSIISPNFSFMGQLLQFESQVLAPHCSAEAGSPAMAVLDRGTSTTTVFNFPVSIPVHSTNSALSYLQSPITTSPSC
For the molecule B7, the “AR-activated GAL4-Elk1 activity” value in assay [4] is given as “diminished”.
